What was measured:
[1] = test system: Six1 + Eya2 Eya domain (ED) complex; assay: FP; details: DMSO no effect
[2] = test system: Six1, near full-length (natural degradation product ending at residue 259); assay: FP; details: 28 kD Six1 with 10 kD fluorescein DNA, single cuvette
[3] = test system: Six1, near full-length (natural degradation product ending at residue 259); assay: EMSA; details: preliminary estimate
[4] = test system: Six1 + Eya2 Eya domain (ED) complex; assay: EMSA; details: addition of Eya ED increases affinity
Six1, full-length = molecular target: T1, Six1, full-length (UniProt Q15475); assay: EMSA; details: Six1 alone
T1 sequence: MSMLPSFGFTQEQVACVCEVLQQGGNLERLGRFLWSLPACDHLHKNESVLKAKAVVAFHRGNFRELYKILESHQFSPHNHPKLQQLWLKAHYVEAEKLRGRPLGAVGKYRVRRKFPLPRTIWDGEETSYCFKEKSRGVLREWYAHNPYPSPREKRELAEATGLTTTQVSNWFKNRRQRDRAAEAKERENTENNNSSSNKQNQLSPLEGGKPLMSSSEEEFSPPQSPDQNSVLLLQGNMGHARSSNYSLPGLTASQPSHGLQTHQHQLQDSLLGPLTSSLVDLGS

Question: What does the source list for 5'-fluorescein 16 nt MEF3 dsDNA?
Answer: binding (fold increase in anisotropy) [1]: 3; binding (fold increase in polarization) [2]: > 4

Question: How did the Kd [3] turn out when 16 nt DNA containing MEF3 motif was run?
Answer: 1000 nM

Question: What does the source list for 18 nt dsDNA containing MEF3 site?
Answer: Kd [4]: 300 nM; Kd (Six1, full-length): 1000 nM

— US20110038791
